Results from EP3470429A1 (Numab Innovation AG, dated 2019).

Experiments:
[1] = molecular target: human PD-L1 expressed on cells (human, UniProt Q9NZQ7 19-290); assay: cell-based or functional assay
[2] = molecular target: T1, human serum albumin (human, UniProt P02768 25-609); assay: SPR Biacore T200, SA amine-coupled to CM5 chip, pH 5.5
T1 construct: also called HSA; human SA

[3] = molecular target: T2, human PD-L1-Fc chimeric protein (human, UniProt Q9NZQ7 19-238); assay: SPR Biacore T200, PD-L1-Fc captured by anti-human Fc
T2 construct: not shown: Fc part, captured by an anti-human IgG Fc antibody

Binder | IC50 (ng/ml), NF-AT Potency assay [1] [ng/mL] | other results
PRO951 (bispecific antibody) DIQMTQSPSSLSASVGDRVTITCQASQSINDYLAWYQQKPGKAPKLLIYKASTLASGVPSRFSGSGSGTDFTLTISSLQPEDFATYYCQQGYIITDIDNVFGTGTKVTVLGGGGGSEVQLVESGGGLVQPGGSLRLSCAASGFSFNNDYDMCWVRQAPGKGLEWIGCIDTGDGSTYYASWAKGRFTISRDNSKNTVYLQMNSLRAEDTAVYYCAREAASSSGYGMGYFDLWGQGTLVTVSSGGGGSGGGGSGGGGSGGGGSIQMTQSPSSLSASVGDRVTITCQSSQSVYDNNWLAWYQQKPGKAPKLLIYRASNLASGVPSRFSGSGSGTDFTLTISSLQPEDFATYYCQGTYLSSNWYWAFGTGTKVTVLGGGGGSQVQLQESGPGLVKPSETLSLTCKVSGFSFSSGYDMCWIRQPPGKGLEWIGCVVAGSVDITYYASWAKGRVTISVDSSKNQFSLKLSSVTAADTAVYYCARKDAYSDAFNLWGQGTLVTVSS | 88.5 | 
PRO963 (other, also called PRO1051; 38_02_A04 sc01 scDb-i/33-03-G02 sc01 scDb-o/19-01-H04-sc03 scFv) DIQMTQSPSSLSASVGDRVTITCQASQSINDYLAWYQQKPGKAPKLLIYKASTLASGVPSRFSGSGSGTDFTLTISSLQPEDFATYYCQQGYIITDIDNVFGTGTKVTVLGGGGGSQVQLQESGPGLVKPSETLSLTCKVSGFSFSNSYWICWIRQPPGKGLEWIGCTFVGSSDSTYYANWAKGRVTISVDSSKNQFSLKLSSVTAADTAVYYCARHPSDAVYGYANNLWGQGTLVTVSSGGGGSGGGGSGGGGSGGGGSIQMTQSPSSLSASVGDRVTITCQASQSINNVLAWYQQKPGKAPKLLIYRASTLASGVPSRFSGSGSGTDFTLTISSLQPEDFATYYCQSSYGNYGDFGTGTKVTVLGGGGGSQVQLQESGPGLVKPSETLSLTCKVSGFSFSSGYDMCWIRQPPGKGLEWIGCVVAGSVDITYYASWAKGRVTISVDSSKNQFSLKLSSVTAADTAVYYCARKDAYSDAFNLWGQGTLVTVSSGGGGSGGGGSIQMTQSPSSLSASVGDRVTITCQSSESVYSNNQLSWYQQKPGQPPKLLIYDASDLASGVPSRFSGSGSGTDFTLTISSLQPEDFATYYCAGGFSSSSDTAFGGGTKLTVLGGGGGSGGGGSGGGGSGGGGSEVQLVESGGGLVQPGGSLRLSCAASGFSLSSNAMGWVRQAPGKGLEYIGIISVGGFTYYASWAKGRFTISRDNSKNTVYLQMNSLRAEDTATYFCARDRHGGDSSGAFYLWGQGTLVTVSS |  | IC50 (ng/ml), NF-AT Potency assay, with HSA [1]: 275 ng/mL; binding result [2]: binds
PRO1123 (bispecific antibody, also called 38-02-A04 sc05 IF scDb-i/33 03 G02 sc01 scDb-o) DIQMTQSPSSLSASVGDRVTITCQASQSINDYLAWYQQKPGKAPKLLIYKASTLASGVPSRFSGSGSGTDFTLTISSLQPEDFATYYCQQGYIITDIDNVFGTGTKVTVLGGGGGSQVQLQESGPGLVKPSETLSLTCKVSGFSFSNSYWICWVRQPPGKGLEWIGCTFVGSSDSTYYANWAKGRVTISVDSSKNQVSLKLSSVTAADTAVYFCARHPSDAVYGYANNLWGQGTLVTVSSGGGGSGGGGSGGGGSGGGGSIQMTQSPSSLSASVGDRVTITCQASQSINNVLAWYQQKPGKPPKLLIYRASTLASGVPSRFSGSGSGTDFTLTISSLQPEDFATYYCQSSYGNYGDFGTGTKVTVLGGGGGSQVQLQESGPGLVKPSETLSLTCKVSGFSFSSGYDMCWIRQPPGKGLEWIGCVVAGSVDITYYASWAKGRVTISVDSSKNQFSLKLSSVTAADTAVYYCARKDAYSDAFNLWGQGTLVTVSS |  | binding result [3]: binds
PRO830 (scFv) scFv: DIQMTQSPSSLSASVGDRVTITCQASQSINDYLAWYQQKPGKAPKLLIYKASTLASGVPSRFSGSGSGTDFTLTISSLQPEDFATYYCQQGYIITDIDNVFGTGTKVTVLGGGGGSGGGGSGGGGSGGGGSQVQLQESGPGLVKPSETLSLTCKVSGFSFSSGYDMCWIRQPPGKGLEWIGCVVAGSVDITYYASWAKGRVTISVDSSKNQFSLKLSSVTAADTAVYYCARKDAYSDAFNLWGQGTLVTVSS | 42.9 | 
PRO1060 (bispecific antibody, human IgG1, kappa, L234A L235A) light: DIQMTQSPSSLSASVGDRVTITCQASQSINDYLAWYQQKPGKAPKLLIYKASTLASGVPSRFSGSGSGTDFTLTISSLQPEDFATYYCQQGYIITDIDNVFGTGTKVTVLGTVAAPSVFIFPPSDEQLKSGTASVVCLLNNFYPREAKVQWKVDNALQSGNSQESVTEQDSKDSTYSLSSTLTLSKADYEKHKVYACEVTHQGLSSPVTKSFNRGEC heavy: QVQLQESGPGLVKPSETLSLTCKVSGFSFSSGYDMCWIRQPPGKGLEWIGCVVAGSVDITYYASWAKGRVTISVDSSKNQFSLKLSSVTAADTAVYYCARKDAYSDAFNLWGQGTLVTVSSASTKGPSVFPLAPSSKSTSGGTAALGCLVKDYFPEPVTVSWNSGALTSGVHTFPAVLQSSGLYSLSSVVTVPSSSLGTQTYICNVNHKPSNTKVDKRVEPKSCDKTHTCPPCPAPEAAGGPSVFLFPPKPKDTLMISRTPEVTCVVVDVSHEDPEVKFNWYVDGVEVHNAKTKPREEQYNSTYRVVSVLTVLHQDWLNGKEYKCKVSNKALGAPIEKTISKAKGQPREPQVYTLPPSREEMTKNQVSLTCLVKGFYPSDIAVEWESNGQPENNYKTTPPVLDSDGSFFLYSKLTVDKSRWQQGNVFSCSVMHEALHNHYTQKSLSLSPGKGGGGSGGGGSIQMTQSPSSLSASVGDRVTITCQASQSINNVLAWYQQKPGKAPKLLIYRASTLASGVPSRFSGSGSGTDFTLTISSLQPEDFATYYCQSSYGNYGDFGTGTKVTVLGGGGGSGGGGSGGGGSGGGGSQVQLQESGPGLVKPSETLSLTCKVSGFSFSNSYWICWIRQPPGKGLEWIGCTFVGSSDSTYYANWAKGRVTISVDSSKNQFSLKLSSVTAADTAVYYCARHPSDAVYGYANNLWGQGTLVTVSS | 133 | 

The next lines start with results.

IC50 (ng/ml), NF-AT Potency assay [1] [ng/mL] | Binder | other results
93.8 | PRO1059 (bispecific antibody, human IgG1, kappa, L234A L235A) light: DIQMTQSPSSLSASVGDRVTITCQASQSINDYLAWYQQKPGKAPKLLIYKASTLASGVPSRFSGSGSGTDFTLTISSLQPEDFATYYCQQGYIITDIDNVFGTGTKVTVLGTVAAPSVFIFPPSDEQLKSGTASVVCLLNNFYPREAKVQWKVDNALQSGNSQESVTEQDSKDSTYSLSSTLTLSKADYEKHKVYACEVTHQGLSSPVTKSFNRGECGGGGSGGGGSIQMTQSPSSLSASVGDRVTITCQASQSINNVLAWYQQKPGKAPKLLIYRASTLASGVPSRFSGSGSGTDFTLTISSLQPEDFATYYCQSSYGNYGDFGTGTKVTVLGGGGGSGGGGSGGGGSGGGGSQVQLQESGPGLVKPSETLSLTCKVSGFSFSNSYWICWIRQPPGKGLEWIGCTFVGSSDSTYYANWAKGRVTISVDSSKNQFSLKLSSVTAADTAVYYCARHPSDAVYGYANNLWGQGTLVTVSS heavy: QVQLQESGPGLVKPSETLSLTCKVSGFSFSSGYDMCWIRQPPGKGLEWIGCVVAGSVDITYYASWAKGRVTISVDSSKNQFSLKLSSVTAADTAVYYCARKDAYSDAFNLWGQGTLVTVSSASTKGPSVFPLAPSSKSTSGGTAALGCLVKDYFPEPVTVSWNSGALTSGVHTFPAVLQSSGLYSLSSVVTVPSSSLGTQTYICNVNHKPSNTKVDKRVEPKSCDKTHTCPPCPAPEAAGGPSVFLFPPKPKDTLMISRTPEVTCVVVDVSHEDPEVKFNWYVDGVEVHNAKTKPREEQYNSTYRVVSVLTVLHQDWLNGKEYKCKVSNKALGAPIEKTISKAKGQPREPQVYTLPPSREEMTKNQVSLTCLVKGFYPSDIAVEWESNGQPENNYKTTPPVLDSDGSFFLYSKLTVDKSRWQQGNVFSCSVMHEALHNHYTQKSLSLSPGK | 
21.3 | PRO1013 (scFv) scFv: DIQMTQSPSSLSASVGDRVTITCQASQSIGTYLAWYQQKPGKAPKLLIYRAFILASGVPSRFSGSGSGTDFTLTISSLQPEDFATYYCQSNFYSDSTTIGPNAFGTGTKVTVLGGGGGSGGGGSGGGGSGGGGSQVQLVQSGAEVKKPGASVKVSCKASGFSFNSDYWIYWVRQAPGQGLEWMGSIYGGSSGNTQYASWAQGRVTMTRDTSISTAYMELSSLRSEDTAVYYCARGYVDYGGATDLWGQGTLVTVSS | 
